This is an account of results in FireProtDB (doi:10.1002/pro.5560070228).

Where “and” joins values, the source holds several entries; their conditions need not be identical. Equal entries are not always repeated.

The conditions of the series: Escherichia coli (strain K12), pH 7, Potassium phosphate 50 mM, KCl 100 mM, reversible: yes.

Cold shock protein CspA wild type, P0A9X9, sequence (P0A9X9 whole entry): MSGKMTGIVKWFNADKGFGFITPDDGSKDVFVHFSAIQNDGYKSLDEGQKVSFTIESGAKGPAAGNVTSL

With “Cold shock protein CspA wild type, P0A9X9”, the denaturant m value was 1.7 kcal/mol/M and 2.4 kcal/mol/M and 2.1 kcal/mol/M (10 °C, GdnHCl, Fluorescence); 0.59 kcal/mol/M and 0.66 kcal/mol/M and 0.64 kcal/mol/M (10 °C, Urea, Fluorescence); 1.7 kcal/mol/M and 2.9 kcal/mol/M and 2.1 kcal/mol/M (25 °C, GdnHCl, CD); 2.2 kcal/mol/M and 2 kcal/mol/M (25 °C, GdnHCl, Fluorescence); 0.6 kcal/mol/M and 0.7 kcal/mol/M (25 °C, Urea, CD); 0.71 kcal/mol/M and 0.69 kcal/mol/M and 0.78 kcal/mol/M (25 °C, Urea, Fluorescence). The “denaturant midpoint (higher = more stable)” value is, setting by setting: (10 °C, GdnHCl, Fluorescence) 1.8 M and 1.6 M; (10 °C, Urea, Fluorescence) 4.9 M and 5 M and 4.5 M; (25 °C, GdnHCl, CD) 1.5 M and 1.3 M and 1.6 M; (25 °C, GdnHCl, Fluorescence) 1.4 M and 1.6 M; (25 °C, Urea, CD) 4 M and 4.5 M and 4.1 M; (25 °C, Urea, Fluorescence) 4.2 M. Also, the unfolding free energy runs as follows: (10 °C, GdnHCl, Fluorescence) 3.1 kcal/mol and 3.8 kcal/mol and 3.3 kcal/mol; (10 °C, Urea, Fluorescence) 2.9 kcal/mol and 3.3 kcal/mol and 2.8 kcal/mol; (25 °C, GdnHCl, CD) 2.4 kcal/mol and 3.7 kcal/mol and 3.3 kcal/mol; (25 °C, GdnHCl, Fluorescence) 3.1 kcal/mol and 3.2 kcal/mol and 3 kcal/mol; (25 °C, Urea, CD) 2.6 kcal/mol and 3.1 kcal/mol; (25 °C, Urea, Fluorescence) 3 kcal/mol and 2.9 kcal/mol and 3.2 kcal/mol.
